From patent US20260167699A1 (Chugai, published 2026)

B1: GpH7-A5/GpH7-B3 variant I332_01G/GpL16-k0 (antibody, human IgG1, kappa)
heavy 1: not shown
heavy 2: not shown
light: DIVMTQSPLSLPVTPGEPASISCQASESLVHSNRNTYLHWYLQKPGQSPQLLIYKVSNRFSGVPDRFSGSGSGTDFTLKISRVEAEDVGVYYCSQNTHVPPTFGQGTKVEIERTVAAPSVFIFPPSDEQLKSGTASVVCLLNNFYPREAKVQWKVDNALQSGNSQESVTEQDSKDSTYSLSSTLTLSKADYEKHKVYACEVTHQGLSSPVTKSFNRGEC
notes: copies: 1 + 1 + 2
B2: GpH7-A5/GpH7-B3 variant I336_03V/GpL16-k0 (antibody, human IgG1, kappa)
heavy 1: not shown
heavy 2: not shown
light: B1 light
notes: copies: 1 + 1 + 2
B3: GpH7-A5/GpH7-B3 variant H268_02A/GpL16-k0 (antibody, human IgG1, kappa)
heavy 1: not shown
heavy 2: not shown
light: B1 light
notes: copies: 1 + 1 + 2
B4: GpH7-A5/GpH7-B3 variant G236_20W/GpL16-k0 (antibody, human IgG1, kappa)
heavy 1: not shown
heavy 2: not shown
light: B1 light
notes: copies: 1 + 1 + 2
B5: GpH7-A5/GpH7-B3 variant E333_20W/GpL16-k0 (antibody, human IgG1, kappa)
heavy 1: not shown
heavy 2: not shown
light: B1 light
notes: copies: 1 + 1 + 2
B6: GpH7-A5/GpH7-B3 variant H268_06M/GpL16-k0 (antibody, human IgG1, kappa)
heavy 1: not shown
heavy 2: not shown
light: B1 light
notes: copies: 1 + 1 + 2
B7: GpH7-A5/GpH7-B3 variant I336_01G/GpL16-k0 (antibody, human IgG1, kappa)
heavy 1: not shown
heavy 2: not shown
light: B1 light
notes: copies: 1 + 1 + 2
B8: GpH7-A5/GpH7-B3 variant H268_12R/GpL16-k0 (antibody, human IgG1, kappa)
heavy 1: not shown
heavy 2: not shown
light: B1 light
notes: copies: 1 + 1 + 2
B9: GpH7-A5/GpH7-B3 variant H268_03V/GpL16-k0 (antibody, human IgG1, kappa)
heavy 1: not shown
heavy 2: not shown
light: B1 light
notes: copies: 1 + 1 + 2
B10: GpH7-A5/GpH7-B3 variant I332_05P/GpL16-k0 (antibody, human IgG1, kappa)
heavy 1: not shown
heavy 2: not shown
light: B1 light
notes: copies: 1 + 1 + 2
B11: GpH7-A5/GpH7-B3 variant E333_18N/GpL16-k0 (antibody, human IgG1, kappa)
heavy 1: not shown
heavy 2: not shown
light: B1 light
notes: copies: 1 + 1 + 2
B12: GpH7-A5/GpH7-B3 variant H268_18N/GpL16-k0 (antibody, human IgG1, kappa)
heavy 1: not shown
heavy 2: not shown
light: B1 light
notes: copies: 1 + 1 + 2
B13: GpH7-A5/GpH7-B3 variant H268_13S/GpL16-k0 (antibody, human IgG1, kappa)
heavy 1: not shown
heavy 2: not shown
light: B1 light
notes: copies: 1 + 1 + 2
B14: GpH7-A5/GpH7-B3 variant E333_14T/GpL16-k0 (antibody, human IgG1, kappa)
heavy 1: not shown
heavy 2: not shown
light: B1 light
notes: copies: 1 + 1 + 2
B15: GpH7-A5/GpH7-B3 variant I332_18N/GpL16-k0 (antibody, human IgG1, kappa)
heavy 1: not shown
heavy 2: not shown
light: B1 light
notes: copies: 1 + 1 + 2
B16: GpH7-A5/GpH7-B3 variant H268_05P/GpL16-k0 (antibody, human IgG1, kappa)
heavy 1: not shown
heavy 2: not shown
light: B1 light
notes: copies: 1 + 1 + 2
B17: GpH7-A5/GpH7-B3 variant I332_20W/GpL16-k0 (antibody, human IgG1, kappa)
heavy 1: not shown
heavy 2: not shown
light: B1 light
notes: copies: 1 + 1 + 2
B18: GpH7-A5/GpH7-B3 variant H268_04F/GpL16-k0 (antibody, human IgG1, kappa)
heavy 1: not shown
heavy 2: not shown
light: B1 light
notes: copies: 1 + 1 + 2
B19: GpH7-A5/GpH7-B3 variant I332_08L/GpL16-k0 (antibody, human IgG1, kappa)
heavy 1: not shown
heavy 2: not shown
light: B1 light
notes: copies: 1 + 1 + 2
B20: GpH7-A5/GpH7-B3 variant H268_01G/GpL16-k0 (antibody, human IgG1, kappa)
heavy 1: not shown
heavy 2: not shown
light: B1 light
notes: copies: 1 + 1 + 2
B21: GpH7-A5/GpH7-B3 variant I332_13S/GpL16-k0 (antibody, human IgG1, kappa)
heavy 1: not shown
heavy 2: not shown
light: B1 light
notes: copies: 1 + 1 + 2
B22: GpH7-A5/GpH7-B3 variant G236_15Y/GpL16-k0 (antibody, human IgG1, kappa)
heavy 1: not shown
heavy 2: not shown
light: B1 light
notes: copies: 1 + 1 + 2
B23: GpH7-A5/GpH7-B3 variant I332_02A/GpL16-k0 (antibody, human IgG1, kappa)
heavy 1: not shown
heavy 2: not shown
light: B1 light
notes: copies: 1 + 1 + 2
B24: GpH7-A5/GpH7-B3 variant H268_10E/GpL16-k0 (antibody, human IgG1, kappa)
heavy 1: not shown
heavy 2: not shown
light: B1 light
notes: copies: 1 + 1 + 2
B25: GpH7-A5/GpH7-B3 variant I332_04F/GpL16-k0 (antibody, human IgG1, kappa)
heavy 1: not shown
heavy 2: not shown
light: B1 light
notes: copies: 1 + 1 + 2
B26: GpH7-A5/GpH7-B3 variant I332_12R/GpL16-k0 (antibody, human IgG1, kappa)
heavy 1: not shown
heavy 2: not shown
light: B1 light
notes: copies: 1 + 1 + 2
B27: GpH7-A5/GpH7-B3 variant I332_15Y/GpL16-k0 (antibody, human IgG1, kappa)
heavy 1: not shown
heavy 2: not shown
light: B1 light
notes: copies: 1 + 1 + 2
B28: GpH7-A5/GpH7-B3 variant I332_19Q/GpL16-k0 (antibody, human IgG1, kappa)
heavy 1: not shown
heavy 2: not shown
light: B1 light
notes: copies: 1 + 1 + 2
B29: GpH7-A5/GpH7-B3 variant G236_03V/GpL16-k0 (antibody, human IgG1, kappa)
heavy 1: not shown
heavy 2: not shown
light: B1 light
notes: copies: 1 + 1 + 2
B30: GpH7-A5/GpH7-B3 variant H268_08L/GpL16-k0 (antibody, human IgG1, kappa)
heavy 1: not shown
heavy 2: not shown
light: B1 light
notes: copies: 1 + 1 + 2
B31: GpH7-A5/GpH7-B3 variant I336_06M/GpL16-k0 (antibody, human IgG1, kappa)
heavy 1: not shown
heavy 2: not shown
light: B1 light
notes: printed 1336_06M, read as I336_06M; also called 1336_06M; copies: 1 + 1 + 2

target: T1, FcγRIIIa (human, UniProt P08637 17-208); test: SPR (Biacore);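 note: antibody variants captured on an SPR sensor chip, with FcγRIIIa passed over as analyte in HBS-EP+ buffer at 25 °C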
T1 construct: extracellular domain; also called 3a; FcγRIIIa extracellular domain
T1 sequence (P08637 other isoform, or with tags, fused parts or gaps): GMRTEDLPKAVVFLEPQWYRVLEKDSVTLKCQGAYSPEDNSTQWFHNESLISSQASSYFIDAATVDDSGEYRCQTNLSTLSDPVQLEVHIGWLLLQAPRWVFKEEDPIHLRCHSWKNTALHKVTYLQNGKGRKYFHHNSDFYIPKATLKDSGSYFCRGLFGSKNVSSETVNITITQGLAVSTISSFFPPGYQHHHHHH

| He/Con 3a | Binder |
| --- | --- |
| 101 % of GpH7-A5/GpH7-B3/GpL16-k0 | B1 |
| 107 % of GpH7-A5/GpH7-B3/GpL16-k0 | B2 |
| 121 % of GpH7-A5/GpH7-B3/GpL16-k0 | B3 |
| 126 % of GpH7-A5/GpH7-B3/GpL16-k0 | B4 |
| 104 % of GpH7-A5/GpH7-B3/GpL16-k0 | B5 |
| 79.5 % of GpH7-A5/GpH7-B3/GpL16-k0 | B6 |
| 94.6 % of GpH7-A5/GpH7-B3/GpL16-k0 | B7 |
| 76 % of GpH7-A5/GpH7-B3/GpL16-k0 | B8 |
| 91.4 % of GpH7-A5/GpH7-B3/GpL16-k0 | B9 |
| 56.3 % of GpH7-A5/GpH7-B3/GpL16-k0 | B10 |
| 76.2 % of GpH7-A5/GpH7-B3/GpL16-k0 | B11 |
| 103 % of GpH7-A5/GpH7-B3/GpL16-k0 | B12 |
| 121 % of GpH7-A5/GpH7-B3/GpL16-k0 | B13 |
| 100 % of GpH7-A5/GpH7-B3/GpL16-k0 | B14 |
| 84.9 % of GpH7-A5/GpH7-B3/GpL16-k0 | B15 |
| 75.6 % of GpH7-A5/GpH7-B3/GpL16-k0 | B16 |

| He/Con 3a | Binder |
| --- | --- |
| 116 % of GpH7-A5/GpH7-B3/GpL16-k0 | B17 |
| 96 % of GpH7-A5/GpH7-B3/GpL16-k0 | B18 |
| 76 % of GpH7-A5/GpH7-B3/GpL16-k0 | B19 |
| 95.7 % of GpH7-A5/GpH7-B3/GpL16-k0 | B20 |
| 95.6 % of GpH7-A5/GpH7-B3/GpL16-k0 | B21 |
| 112 % of GpH7-A5/GpH7-B3/GpL16-k0 | B22 |
| 103 % of GpH7-A5/GpH7-B3/GpL16-k0 | B23 |
| 184 % of GpH7-A5/GpH7-B3/GpL16-k0 | B24 |
| 89.3 % of GpH7-A5/GpH7-B3/GpL16-k0 | B25 |
| 78.1 % of GpH7-A5/GpH7-B3/GpL16-k0 | B26 |
| 92.4 % of GpH7-A5/GpH7-B3/GpL16-k0 | B27 |
| 101 % of GpH7-A5/GpH7-B3/GpL16-k0 | B28 |
| 53.8 % of GpH7-A5/GpH7-B3/GpL16-k0 | B29 |
| 75.9 % of GpH7-A5/GpH7-B3/GpL16-k0 | B30 |
| 104 % of GpH7-A5/GpH7-B3/GpL16-k0 | B31 |
